{
  "source": "patent US9701713B2",
  "about": "“Compositions and methods for introduction of macromolecules into cells” (The Regents of the University of Colorado, a body corporate, priority 2011, dated 2017)",
  "key": {"[1]": {"biological_target": "T1, P23H rhodopsin (Homo sapiens, UniProt P08100, P23H)", "T1 construct": "expressed in transfected cells", "assay": "Cell model of aggregation-prone P23H rhodopsin", "format": "cell-based", "details": "aggregation-prone mutant P23H rhodopsin", "excerpt": "As shown, α crystallin prevents aggregation of the aggregation-prone mutant of rhodpsin, P23H rhodopsin.\nThis mutation is the cause of the major form of retinitis pigmentosa in humans."}, "[2]": {"system": "lysozyme", "assay": "Chaperone-like activity: suppression of chemically-induced lysozyme aggregation", "format": "biochemical", "details": "lysozyme with dithiothreitol at 37° C.", "excerpt": "The “Relative Absorbance (360 nm)” of lysozyme increases over time under assay conditions. The absorbance increase is an index of protein aggregation. A reduction in the slope of absorbance increase corresponds to inhibition of lysozyme aggregation.\nRecombinant human αA- and αB-crystallins were modified by addition of putative transduction sequences at their N- or C-termini. These proteins were expressed in E. coli and isolated to apparent homogeneity using previously published methods (Cobb et al. 2000). Purified proteins were analyzed by size exclusion chromatography to determine size heterogeneity. CLA was assessed by measuring the ability of candidate proteins to suppress chemically-induced aggregation of substrate protein lysozyme in the presence of dithiothreitol at 37° C."}, "[3]": {"system": "human lens cells", "assay": "Cell penetration and retention of AlexaFluor labeled crystallin in human lens cells over 3 days", "format": "cell-based", "details": "60 minutes exposure", "method": "αB crystallin, with or without fusion to the NTD peptide, was labeled with the small molecular weight fluorescent molecule AlexaFluor. It was then combined with tissue culture nutrient media and applied to a culture plate containing human lens cells. After 60 minutes, the culture media were removed, and replaced with culture media without crystallins. Entry and distribution of crystallins was measured over 3 days by observing fluorescence (green). Cell nuclei were stained with Hoechst dye (blue)."}, "[4]": {"system": "human lens epithelial cells (HLE B3)", "assay": "Uptake of Alexa Fluor 488 labeled crystallins into human lens epithelial cells", "format": "cell-based", "details": "Alexa Fluor 488 label, equal amounts of protein", "method": "Since in vitro properties of alpha crystallin were unaffected by the addition of the NTD peptide, the ability of the NTD tag to enhance uptake of client proteins into living cells was investigated. To monitor cell uptake, wild type and NTD tagged crystallins were labeled with Alexa Fluor 488, a small reporter molecule. Equal amounts of protein were added to separate tissue culture plates containing human lens epithelial cells (HLE B3) and analyzed for their uptake into cells. At various times after addition of the protein to the cell media, cells were fixed and analyzed by fluorescent microscopy for cellular uptake of the labeled proteins. […] (See FIG. 1 and FIG. 6).\nFurther, αA- and αB-crystallins with and without the NTD tag were fluorescently-labeled using the fluorescent reporter molecule Alexa Fluor 488, and were incubated with human lens epithelial cells (HLE B3) and human embryonic kidney cells (HEK293). Time-dependent uptake was measured by fluorescent microscopy. At various times after addition of the protein to the cell media, cells were fixed and analyzed by fluorescent microscopy for cellular uptake of the labeled proteins."}},
  "data": [
    {"molecule": "alpha crystallin: alpha crystallin with chaperone-like activity applied to cells; b52 and b54 name it αA crystallin", "values": [
      {"measurement": "fluorescence of P23H rhodopsin (prevention of aggregation)", "setting": "[1]", "value": "prevented the loss of fluorescence"}
    ]},
    {"molecule": "TAT-αB crystallin: αB crystallin fused to the TAT cell-penetrating peptide (GRKKRRQRRRPQ) of human immunodeficiency virus (protein) GRKKRRQRRRPQDIAIHHPWIRRPFFPFHSPSRLFDQFFGEHLLESDLFPTSTSLSPFYLRPPSFLRAPSWFDTGLSEMRLEKDRFSVNLDVKHFSPEELKVKVLGDVIEVHGKHEERQDEHGFISREFHRKYRIPADVDPLTITSSLSSDGVLTVNGPRKQVSGPERTIPITREEKPAVTAAPKK", "values": [
      {"measurement": "chaperone-like activity (suppression of lysozyme aggregation, absorbance 360 nm)", "setting": "[2]", "value": "does not suppress lysozyme aggregation"}
    ]},
    {"molecule": "αB crystallin: recombinant human αB-crystallin (HSPB5) without transduction peptide, used as comparator (protein) MDIAIHHPWIRRPFFPFHSPSRLFDQFFGEHLLESDLFPTSTSLSPFYLRPPSFLRAPSWFDTGLSEMRLEKDRFSVNLDVKHFSPEELKVKVLGDVIEVHGKHEERQDEHGFISREFHRKYRIPADVDPLTITSSLSSDGVLTVNGPRKQVSGPERTIPITREEKPAVTAAPKK", "values": [
      {"measurement": "intracellular crystallin fluorescence", "setting": "[3]; after 48 hours", "value": "substantially lost"},
      {"measurement": "intracellular crystallin fluorescence", "setting": "[3]; after 72 hours", "value": "virtually undetectable"},
      {"measurement": "intracellular fluorescence (cellular uptake)", "setting": "[4]", "value": "comparatively little intracellular fluorescence"},
      {"measurement": "chaperone-like activity (suppression of lysozyme aggregation, absorbance 360 nm)", "setting": "[2]", "value": "effectively suppress lysozyme aggregation"}
    ]}
  ]
}
